± gives the uncertainty stated by the source.
Test: protein stability index of a GFP-peptide fusion (yeast GPS) (PSI 1-4); higher = more stable; sorted into four equal gates, so the index is relative within each strain
Method in brief: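 Each library plasmid carries Cherry plus GFP with a tiled 17-residue yeast protein peptide fused downstream, and the pooled library was carried in yeast. Mid-log cultures in leucine-free medium were sorted into four equal gates by GFP/Cherry ratio. Reads from Illumina sequencing of PCR-amplified plasmids from each gate were assigned to strains by barcodes. Per peptide, the protein stability index was computed as the summed products of gate read frequency and gate number.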

Row | Sequence | protein stability index (doa10∆) | protein stability index (pdr5∆) | protein stability index (san1∆) | protein stability index (ubr1∆)
1 | VESPDKNVRFRVLQLLA [YCG1] | 1.09 ± 0.098 | 1.4 ± 0.12 | 1.18 ± 0.13 | 1.65 ± 0.13
2 | ADLERFFLSIYFFYASR [YJL039C/NUP192] | 1.68 ± 0.073 | 1.12 ± 0.13 | 1.22 ± 0.12 | 1.55 ± 0.072
3 | GDYGEEEDADQEESFSL [SRB8] | 3.76 ± 0.28 | 3.63 ± 0.17 |  | 
4 | EKKAEYFAKLREYLEEY [RPP0] | 3.44 ± 0.092 | 3.31 ± 0.088 | 3.05 ± 0.067 | 3.54 ± 0.099
5 | TATAATNGNNAGGGSNK [MED6] | 3.23 ± 0.12 | 3.41 ± 0.085 | 3.27 ± 0.11 | 3.46 ± 0.1
6 | VKKAVTVHSKSRTRAHA [RPL19A] | 3.2 ± 0.1 | 3.2 ± 0.13 | 2.67 ± 0.12 | 3.16 ± 0.1
7 | GSRTTTNHVLEVFSVLG [RPO31] | 2.93 ± 0.13 | 2.76 ± 0.14 |  | 
8 | AQEDVPYLLPYILEAEA [QCR7] | 2.02 ± 0.048 | 1.79 ± 0.046 | 2.03 ± 0.067 | 1.86 ± 0.038
9 | PPSVTLQDWQREDEFGS [YDL088C/ASM4] | 3.1 ± 0.11 | 3.31 ± 0.074 | 2.99 ± 0.065 | 3.24 ± 0.054
10 | TENATENDQQDNEEWMN [LIN1] | 3.23 ± 0.072 | 3.03 ± 0.067 | 3.06 ± 0.062 | 2.77 ± 0.05
11 | IFSFHQDSIFQRIIADL [SRB8] | 2.49 ± 0.062 | 2.06 ± 0.072 | 2.24 ± 0.081 | 2.41 ± 0.035
12 | KLSDIFLSKPSKALYPD [SNF2] | 2.53 ± 0.041 | 2.84 ± 0.049 | 2.61 ± 0.042 | 2.7 ± 0.041
13 | ESVLPAARYDYAVAEQC [QCR2] | 3.15 ± 0.11 | 3.25 ± 0.11 | 2.97 ± 0.11 | 1.98 ± 0.06
14 | DFHFSTDRITRLFIKPG [BRN1] | 2.33 ± 0.058 | 2.6 ± 0.046 | 2.16 ± 0.089 | 2.67 ± 0.048
15 | RVHDQPLIWQLLQSSII [POP3] | 1.43 ± 0.062 | 1.78 ± 0.07 | 1.66 ± 0.11 | 1.7 ± 0.028
16 | IPSSKIDDFTTRLWGSV [SNU114] | 2.93 ± 0.16 | 3.05 ± 0.14 | 3 ± 0.12 | 3.21 ± 0.12
17 | ASAGSKEGASTNWDDHA [YMR153W/NUP53] | 3.26 ± 0.13 | 3.49 ± 0.14 | 3.27 ± 0.077 | 3.42 ± 0.11
18 | ITSIMDDLALPYQHPPN [ITC1] | 3.17 ± 0.084 | 3.34 ± 0.076 | 3.08 ± 0.078 | 3.22 ± 0.048
19 | TKLIISGQLNFEIDGDV [PCI8] | 2.57 ± 0.099 | 2.16 ± 0.093 | 1.87 ± 0.11 | 2.23 ± 0.055
20 | DIPLAKALDNACGAFIN [CDC53] | 2.63 ± 0.091 | 3.1 ± 0.067 | 2.8 ± 0.078 | 2.87 ± 0.072
21 | ANLLQINVDNDPFFAQS [YML103C/NUP188] | 3.04 ± 0.059 | 3.14 ± 0.06 | 2.88 ± 0.055 | 2.93 ± 0.094
22 | SNSSSSPPIIDLFSNNN [MED1] | 2.77 ± 0.06 | 2.82 ± 0.05 | 2.83 ± 0.042 | 2.9 ± 0.042
23 | NCIRILADKLENYEGKQ [YIL149C/MLP2] | 3 ± 0.3 | 3.57 ± 0.2 | 3.22 ± 0.093 | 2.81 ± 0.19
24 | SSLSFGPENALNVYHYF [YJL039C/NUP192] | 1.94 ± 0.031 | 2.11 ± 0.038 | 2.04 ± 0.05 | 2.67 ± 0.029
25 | IKLVKQNDELKFQGVLE [RPC34] | 3.25 ± 0.13 | 3.53 ± 0.12 | 3.37 ± 0.051 | 2.58 ± 0.095
26 | SVYGLDDISRQVARTNL [ROX3] | 2.06 ± 0.058 | 2.7 ± 0.059 | 1.96 ± 0.1 | 2.94 ± 0.046

Row | Sequence | protein stability index (doa10∆) | protein stability index (pdr5∆) | protein stability index (san1∆) | protein stability index (ubr1∆)
27 | VVSLKEGMFANANRVFR [SMC2] | 2.84 ± 0.071 | 3.11 ± 0.11 | 3.26 ± 0.06 | 3.18 ± 0.062
28 | NSADVDMDAQGRSDSNT [YGL100W/SEH1] | 3.45 ± 0.096 | 3.39 ± 0.088 | 3.1 ± 0.12 | 3.29 ± 0.061
29 | YGVSFFTIQSFVSSLSN [BRR2] | 1.47 ± 0.052 | 1.32 ± 0.058 | 1.18 ± 0.087 | 1.42 ± 0.054
30 | EIKNDFIMVKGCIPGNR [RPL3] | 1.1 ± 0.14 | 1.66 ± 0.08 | 1.48 ± 0.16 | 1.45 ± 0.11
31 | TVLETLLSDVNQNQRNV [SMC3] | 3.23 ± 0.13 | 2.94 ± 0.057 | 3.01 ± 0.085 | 3.02 ± 0.082
32 | PGFDEFQLIDMKDKEIN [CSI1] | 3.34 ± 0.14 | 3 ± 0.11 | 3.41 ± 0.045 | 3.45 ± 0.061
33 | ALRALQENGTIFRGSLI [YDL088C/ASM4] | 2.02 ± 0.11 | 1.68 ± 0.076 | 1.28 ± 0.1 | 1.53 ± 0.092
34 | KHKKKHLKHENANDETT [RPB4] | 2.92 ± 0.053 | 2.84 ± 0.085 | 2.84 ± 0.11 | 3.19 ± 0.074
35 | YPESISNELIEHFSHFG [YDL088C/ASM4] | 2.76 ± 0.067 | 3.02 ± 0.048 | 2.89 ± 0.043 | 2.93 ± 0.034
36 | QKSFEQLNSRAVAVVVD [RPN11] | 1.45 ± 0.12 | 1.72 ± 0.09 | 1.51 ± 0.16 | 1.48 ± 0.058
37 | SHKTTKEDTVSWFKQKY [RPL11A] | 1.8 ± 0.064 | 1.56 ± 0.054 | 1.36 ± 0.12 | 1.53 ± 0.064
38 | RSEKSTTNAQTKKLIQK [SRP54] |  | 2.82 ± 0.13 | 2.77 ± 0.15 | 2.94 ± 0.098
39 | SSKTRNVLNRIQELEDQ [ITC1] | 1.35 ± 0.088 | 1.16 ± 0.051 |  | 1.18 ± 0.058
40 | VYTQSNGKTRTLENTLK [RPS2] | 3.45 ± 0.17 | 3.16 ± 0.1 | 3.24 ± 0.075 | 3.38 ± 0.07
41 | IVKTTTKQRLDAYYDLE [PRP8] | 2.77 ± 0.092 | 3.28 ± 0.069 | 3.07 ± 0.05 | 3.19 ± 0.044
42 | YVFNARPDGVHVINVGK [RPS0A] |  | 2.78 ± 0.24 |  | 2.55 ± 0.11
43 | RIHAKNFEAALFAKSSS [GAL11] | 2.67 ± 0.086 | 2.54 ± 0.072 | 2.74 ± 0.099 | 2.56 ± 0.047
44 | IHFADVAHITTKSPAYP [RGR1] | 2.42 ± 0.054 | 2.61 ± 0.055 | 2.55 ± 0.045 | 2.56 ± 0.033
45 | QNKLFYITNADDSTKFQ [SIR3] | 2.96 ± 0.085 | 3.02 ± 0.084 | 3.01 ± 0.078 | 3.27 ± 0.067
46 | VDENETVLESLGRLNKL [LIN1] | 2.79 ± 0.075 | 3.03 ± 0.073 | 2.88 ± 0.069 | 3.03 ± 0.053
47 | TVKRGAAGIWTCSCCKK [RPL43A] | 1.68 ± 0.085 | 1.74 ± 0.058 | 1.74 ± 0.11 | 1.94 ± 0.062
48 | NKGLVVSPYDYNHKRVS [DIB1] | 2.39 ± 0.066 | 2.41 ± 0.066 | 1.61 ± 0.11 | 2.33 ± 0.087
49 | KFQLKKVLCLAVAVGNV [RPL1A] | 1.63 ± 0.047 | 1.25 ± 0.051 | 1.27 ± 0.09 | 1.15 ± 0.033
50 | EGEKCHPQDFGNPGRIR [SEC65] | 3.03 ± 0.076 | 2.76 ± 0.066 | 2.81 ± 0.057 | 3.08 ± 0.047
51 | MLKQHLFKYQGHIGAYL [PUP1] | 2.17 ± 0.064 | 2.34 ± 0.063 | 2.25 ± 0.092 | 2.25 ± 0.071

Source: the supplement of paper PMC9732359
